Test results taken from patent publication US20230285635.

How the values were obtained:
CD31 (PECAM-1) [1] = biological target: CD31 (PECAM-1) (UniProt P16284); assay: flow; conditions: positions printed as 6 (n in SEQ ID NO: 1) are modified bases, identity not stated in the supplied text; at 600 and 800 nM aptamer, saturated at 600 nM; CD31-negative HepG2 and MSCs only about 2% bound
CD31 (PECAM-1) [2] = biological target: CD31 (PECAM-1) (UniProt P16284); assay: cell_activity; conditions: positions printed as 6 (n in SEQ ID NO: 1) are modified bases, identity not stated in the supplied text; aptamer-coated microfluidic device on ECM, shear stress 20 dynes/cm2; antibody coating 51%; more than 80% attached at 10 dynes/cm2

Q: With “TCAGCCGCCAGCCAGTTCGTAGAGGAGGTACGTAATGTCTGGGTATACCCCGATAATTGACCAGAGCACCACAGAG [anti-CD31 aptamer]” as the sequence, how does the binding signal (% of HUVECs bound) (CD31 (PECAM-1) [1]) read?
A: 99

Q: What about the activity (% HUVECs attached) (CD31 (PECAM-1) [2]) of the same sequence?
A: 61.5
